From article PMC7281375, “Therapeutic Targeting of Pancreatic Cancer via EphA2 Dimeric Agonistic Agents” (Pharmaceuticals, 2020)
Entries after “also recorded” stand apart in the source; their conditions may differ.

Tests used:
EphA2 receptor [1] = details: monomeric agents; cited from earlier work
Text: In order to evaluate the ability of each agent to activate the receptor, we tested them in various cellular assays as reported below. Because receptor activation causes its internalization and degradation, we opted to monitor the ability of each agent to reduce EphA2 levels over time, after exposure of cells to test ligands. […] First, we wanted to explore the effect of the linker length between the monomers and therefore tested side by sid ...

EphA2 receptor [2] = experiment: EphA2 degradation, Western blot of BxPC3 cell lysates; assay type: cell-based; details: BxPC3 cells, 1 h, several concentrations
Description: In order to evaluate the ability of each agent to activate the receptor, we tested them in various cellular assays as reported below. Because receptor activation causes its internalization and degradation, we opted to monitor the ability of each agent to reduce EphA2 levels over time, after exposure of cells to test ligands. […] For these experiments we initially treated HCT116 cells with 10 μM concentration of each agent for 2.5 h, and cells lysates were probed for total EphA2 using anti-EphA2 antibody (1C11A12; Thermo Fisher Scientific) (Figure 3a). […] Because these agents had optimized side chains, we expected these to work at much lower concentrations compared to dimeric agents derived from 135B12 (Table 1).
Figure 3 Dimeric and tetrameric EphA2 agonistic ligands degrade EphA2 receptor. […] Total ERK1/2 blot was used as a loading control.
Figure 5 Pharmacological inhibition of EphA2 expression partially impairs migration of pancreatic cancer cells. […] (c) Western blot of BxPC3 cell lysates after exposure for 5 min, 1 h or 24 h to indicated agents. (d) Representative images from treated wells at times 0 and 30 h. **, p < 0.005; ***, p < 0.001. Error bars represent standard deviation. […]

EphA2-KO BxPC3 cells = experiment: Scratch wound cell migration assay (IncuCyte S3), EphA2-KO BxPC3; assay type: cell-based; details: EphA2-KO BxPC3, ephrinA1-Fc versus Fc
Text: The monomeric, unbound EphA2 receptor is known to be pro-oncogenic, inducing cell migration of cancer cells, while ephrinA1-Fc, inducing EphA2 dimer formation can suppressed this activity. To more directly examine the effect EphA2 on pancreatic cancer cell migration we first prepared a stable BxPC3 EphA2 knockout (KO) cell line and monitored its migratory properties using the scratch wound method and live-cell analysis (IncuCyte S3, Sartorius) (Figure 4). Briefly, homogeneous scratch wounds on plated cells were created by a 96-pin mechanical device (WoundMaker, Sartorius, Göttingen, Germany). Subsequently, live-cell imaging was performed to monitor the rate of wound closure. As controls, we also tested wild-type (WT) BxPC3 cells, and each cell type was treated with ephrinA1-Fc, or Fc as control (Figure 4). […]
Cells were plated at 50 × 10^3 cells/well density in 96-well ImageLock plates (Sartorius). […] Plates were imaged every two hours using IncuCyte S3 (Sartorius), and relative wound areas were analyzed using the algorithm of the imager cell migration software module.

BxPC3 cells = experiment: Cell proliferation during migration study; assay type: cell-based; details: BxPC3, treatments of the migration assay
Text: Subsequently, we probed the effect of the pharmacological inhibition of EphA2 by our dimeric agents on the migratory properties of WT-BxPC3 in a similar assay (Figure 5a). […] Of note is that cell proliferation was not affected by either treatment with ephrinA1-Fc or by our agents.

EphA2 receptor [3] = experiment: EphA2 degradation, Western blot of HCT116 cell lysates; assay type: cell-based; details: HCT116 cells, ephrinA1-Fc 1 μg/mL, 2.5 h
WT-BxPC3 cells = experiment: Scratch wound cell migration assay (IncuCyte S3), WT-BxPC3; assay type: cell-based
Text: The monomeric, unbound EphA2 receptor is known to be pro-oncogenic, inducing cell migration of cancer cells, while ephrinA1-Fc, inducing EphA2 dimer formation can suppressed this activity. To more directly examine the effect EphA2 on pancreatic cancer cell migration we first prepared a stable BxPC3 EphA2 knockout (KO) cell line and monitored its migratory properties using the scratch wound method and live-cell analysis (IncuCyte S3, Sartorius) (Figure 4). Briefly, homogeneous scratch wounds on plated cells were created by a 96-pin mechanical device (WoundMaker, Sartorius, Göttingen, Germany). Subsequently, live-cell imaging was performed to monitor the rate of wound closure. As controls, we also tested wild-type (WT) BxPC3 cells, and each cell type was treated with ephrinA1-Fc, or Fc as control (Figure 4).
Cells were plated at 50 × 10^3 cells/well density in 96-well ImageLock plates (Sartorius). The following day, cells were scratched using the WoundMaker (Sartorius) and washed three times with PBS. Subsequently, cells were treated with the indicated compounds in RPMI-1640 complete media. […] Plates were imaged every two hours using IncuCyte S3 (Sartorius), and relative wound areas were analyzed using the algorithm of the imager cell migration software module.

COc1ccc(C[C@H](NC(=O)[C@H](C)NC(=O)[C@H](CC(C)C)NC(=O)c2oc3c(OC)c(OC)ccc3c2C)C(=O)N2CCC[C@H]2C(=O)N[C@@H](CC(=O)O)C(=O)N[C@@H](C)C(=O)N[C@H](C(=O)N2C[C@H](O)C[C@H]2C(=O)N[C@@H](Cc2ccc(Cl)cc2)C(=O)N[C@@H](CCCNC(=N)N)C(=O)N2CCC[C@H]2C(N)=O)C(C)C)cc1 [135H11]
concentration at which receptor activation was shown (EphA2 receptor [1]): ≥ 100 µM

COc1ccc(C[C@H](NC(=O)[C@H](C)NC(=O)[C@H](CC(C)C)NC(=O)c2oc3c(OC)c(OC)ccc3c2C)C(=O)N2CCC[C@H]2C(=O)N[C@@H](CC(=O)O)C(=O)N[C@@H](C)C(=O)N[C@H](C(=O)N2C[C@H](O)C[C@H]2C(=O)N[C@@H](Cc2ccc(Cl)cc2)C(=O)N[C@@H](CCCNC(=N)N)C(=O)N2CCC[C@H]2C(=O)NCC(=O)NCCCC[C@H](NC(=O)CNC(=O)[C@@H]2CCCN2C(=O)[C@H](CCCNC(=N)N)NC(=O)[C@H](Cc2ccc(Cl)cc2)NC(=O)[C@@H]2C[C@@H](O)CN2C(=O)[C@@H](NC(=O)[C@H](C)NC(=O)[C@H](CC(=O)O)NC(=O)[C@@H]2CCCN2C(=O)[C@H](Cc2ccc(OC)cc2)NC(=O)[C@H](C)NC(=O)[C@H](CC(C)C)NC(=O)c2oc3c(OC)c(OC)ccc3c2C)C(C)C)C(=O)N[C@@H](CCCCN)C(=O)NCCCC[C@H](NC(=O)[C@H](CCCCN)NC(=O)[C@H](CCCCNC(=O)CNC(=O)[C@@H]2CCCN2C(=O)[C@H](CCCNC(=N)N)NC(=O)[C@H](Cc2ccc(Cl)cc2)NC(=O)[C@@H]2C[C@@H](O)CN2C(=O)[C@@H](NC(=O)[C@H](C)NC(=O)[C@H](CC(=O)O)NC(=O)[C@@H]2CCCN2C(=O)[C@H](Cc2ccc(OC)cc2)NC(=O)[C@H](C)NC(=O)[C@H](CC(C)C)NC(=O)c2oc3c(OC)c(OC)ccc3c2C)C(C)C)NC(=O)CNC(=O)[C@@H]2CCCN2C(=O)[C@H](CCCNC(=N)N)NC(=O)[C@H](Cc2ccc(Cl)cc2)NC(=O)[C@@H]2C[C@@H](O)CN2C(=O)[C@@H](NC(=O)[C@H](C)NC(=O)[C@H](CC(=O)O)NC(=O)[C@@H]2CCCN2C(=O)[C@H](Cc2ccc(OC)cc2)NC(=O)[C@H](C)NC(=O)[C@H](CC(C)C)NC(=O)c2oc3c(OC)c(OC)ccc3c2C)C(C)C)C(N)=O)C(C)C)cc1 [135I1]
EphA2 degradation (EphA2 receptor [2]): not significantly more effective than its dimeric counterpart; also recorded: successfully degraded EphA2 receptor at nanomolar concentrations

B1: ephrinA1-Fc: dimeric natural ligand of EphA2, Fc dimerized ephrinA1 (protein)
chain: DRHTVFWNSSNPKFRNEDYTIHVQLNDYVDIICPHYEDHSVADAAMEQYILYLVEHEEYQLCQPQSKDQVRWQCNRPSAKHGPEKLSEKFQRFTPFTLGKEFKEGHSYYYISKPIHQHEDRCLRLKVTVSGKITHSPQAHDNPQEKRLAADDPEVRVLHSIGHS
modifications: left off: Fc, end not stated, kept
cell migration, rate of migration over 36 h (EphA2-KO BxPC3 cells): did not significantly decrease the rate of migration
cell proliferation (BxPC3 cells): not affected
total EphA2 level (anti-EphA2 blot) (EphA2 receptor [3]): very effective in causing EphA2 degradation; also recorded: complete degradation of the receptor
cell migration, relative wound density at 36 h (WT-BxPC3 cells; WT BxPC3, 1 μg/mL, versus Fc): WT cells treated with Fc migrated significantly faster than WT cells treated with ephrinA1-Fc
cell migration, relative wound density after 30 h (WT-BxPC3 cells; WT-BxPC3, 1 µg/mL): significant decrease of cell migration
